Reference: article PMC10250230, “Negatively charged, intrinsically disordered regions can accelerate target search by DNA-binding proteins”

Key:
Antp HD-DERT16 = Antp HD-DERT16 (UniProt P02833); test: fluorescence anisotropy; conditions: pH 5.8, 200 mM KCl, Antp Kd: 20 mM potassium succinate pH 5.8, 0.4 mM NaF, HMGB1: 10 mM K phosphate pH 7.5, 1 mM DTT, 1 mM MgCl2, 100 mM KCl, 25 C, Antp stopped-flow: …
Antp HD-DERT11 = Antp HD-DERT11 (UniProt P02833); test: fluorescence anisotropy; conditions: pH 5.8, 200 mM KCl, Antp Kd: 20 mM potassium succinate pH 5.8, 0.4 mM NaF, HMGB1: 10 mM K phosphate pH 7.5, 1 mM DTT, 1 mM MgCl2, 100 mM KCl, 25 C, Antp stopped-flow: …
[1] = biological target: Antp HD (control without DERT; Antp HD-MID) (UniProt P02833); test: fluorescence anisotropy; conditions: pH 5.8, 200 mM KCl, Antp Kd: 20 mM potassium succinate pH 5.8, 0.4 mM NaF, HMGB1: 10 mM K phosphate pH 7.5, 1 mM DTT, 1 mM MgCl2, 100 mM KCl, 25 C, Antp stopped-flow: …
Antp HD-DERT7 = Antp HD-DERT7 (UniProt P02833); test: fluorescence anisotropy; conditions: pH 5.8, 200 mM KCl, Antp Kd: 20 mM potassium succinate pH 5.8, 0.4 mM NaF, HMGB1: 10 mM K phosphate pH 7.5, 1 mM DTT, 1 mM MgCl2, 100 mM KCl, 25 C, Antp stopped-flow: …
HMGB1 full-length = HMGB1 full-length (human, UniProt P09429 1-215); test: competition (fluorescence anisotropy); 10 mM K phosphate pH 7.5, 1 mM DTT, 1 mM MgCl2, 100 mM KCl, 25 C; apparent Kd; Antp Kd: 20 mM potassium succinate pH 5.8, 0.4 mM NaF, 200 mM KCl; HMGB1: 10 mM K phosphate pH 7.5, 1 mM DTT, 1 mM MgCl2, 100 mM KCl, 25 C; Antp stopped-flow: 1; conditions: protein: recombinant
HMGB1 full-length, sequence (P09429 whole entry): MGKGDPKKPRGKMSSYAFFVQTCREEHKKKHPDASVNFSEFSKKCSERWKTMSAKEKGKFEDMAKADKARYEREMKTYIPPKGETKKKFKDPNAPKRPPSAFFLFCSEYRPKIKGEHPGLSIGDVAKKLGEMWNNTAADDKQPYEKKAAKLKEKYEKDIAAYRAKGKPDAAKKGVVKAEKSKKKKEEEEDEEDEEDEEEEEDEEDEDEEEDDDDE

Antp HD (control without DERT; Antp HD-MID), sequence (P02833 whole entry): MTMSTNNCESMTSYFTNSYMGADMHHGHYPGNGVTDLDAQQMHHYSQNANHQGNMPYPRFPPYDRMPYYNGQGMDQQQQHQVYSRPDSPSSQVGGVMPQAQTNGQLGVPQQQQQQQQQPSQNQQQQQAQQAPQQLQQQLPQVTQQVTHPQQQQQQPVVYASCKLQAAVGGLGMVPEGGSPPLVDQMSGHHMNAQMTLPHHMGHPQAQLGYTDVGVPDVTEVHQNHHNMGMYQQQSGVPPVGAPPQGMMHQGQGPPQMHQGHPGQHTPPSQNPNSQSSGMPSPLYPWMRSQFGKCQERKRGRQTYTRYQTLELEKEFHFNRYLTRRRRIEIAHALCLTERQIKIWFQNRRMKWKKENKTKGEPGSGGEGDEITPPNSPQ
Antp HD-DERT16, sequence (P02833 whole entry): as above
Antp HD-DERT11, sequence (P02833 whole entry): as above
Antp HD-DERT7, sequence (P02833 whole entry): as above

Molecule “TAMRA-labeled 15-bp Antp recognition DNA” has a Kd (Antp HD-DERT16) of 61 nM, a Kd (Antp HD-DERT11) of 69 nM and a Kd [1] of 2.6 nM. For the same molecule, the Kd (Antp HD-DERT7) was 19 nM.

B1: unlabeled cisplatin-modified DNA (dsDNA)
DNA 1: CTCTGGACCTTCCTTTCTTC
DNA 2: GAAGAAAGGAAGGTCCAGAG
modifications: cisplatin adduct
B1 gave a Kd (HMGB1 full-length) of 17 ± 3 nM.
